According to the nanobody polyreactivity screen of Harvey et al. (2022):

Experiment: yeast display, Sf9 membrane polyspecificity reagent, FACS + sequencing; frameworks hold sequencing errors
Procedure, shortened: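 Using colony PCR, genes from sorted yeast display clones were amplified, then sequenced on MiSeq at 2 × 250 and filtered by CDR length. The clones had been stained with 10% biotinylated, detergent-solubilized Sf9 membrane reagent for 1 hour at 4 °C and sorted by FACS into low and high (top ~1%) gates on anti-HA and streptavidin fluorescence. Polyreactivity labels come from the gate of origin.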

| Sequence | polyreactivity (PSR sort gate) |
| --- | --- |
| QDQLVESGGGLVQAGGSLRLSCAASGSIFYQNAMGWYRQAPGKERELVAAISIGGGSTYYADSVKGRFTISRDNAKNTVYLQMNSLKPEDTAVYYCATRRSVIYSYVPFDYWGQGTQVTVSS | low polyreactivity |
| QDQLVESGGGLVQAGVSLRISCAASGYIFGFYARGWYRQAPGIERELVAAISKSGGNTYYADSVKGRFTISRDNANNTVSLQMNSLKPEDTAVYYCAADSYRYKYNYWGQGTQVTGSS | high polyreactivity |
| QVQLVESGGGLVQAGGSLRLSCAASGFIFKYYAMGCYRQAPGKERELVAVISRSGGGTYYADSVKGRYTISRDHAKNTVYLQMNSLKTEDTAVYYCAAERSSGFDYWGQGTQVTVSS | high polyreactivity |
| QVQIVESGGGLVEAGGSLRLTCAASGSIFGGNAMGWYRQAPGKERELVAAITSTVSTNYADSVKGRFTISRDNAKNTVYLQMNSLKPEDNAVYYCATDTSNVEGDYWGQGTQVTVSS | low polyreactivity |
| QVQLVDSGGGLVQAGGSLRLICAASGSTLGQYAMGWYRQAPGKERELVAAITARTGRTYYADSVKGRFTISRDNAKNTVYLQMNSMKPEDTAVYYCASVTFSYQDYYWGQGTQVTVSS | high polyreactivity |
| QVQLVESGGGLVQAGGSLRLSCAASGYTFGHYAMGWYRQAPGKERELVAVNTSGGSTNYADSVKGRFTISRDNAKNTVYLQMNSLKPEDTAVYDCAADLYFYYVWIRDYWGQGTQVTVSS | low polyreactivity |
| QVQLVESGGGLVQAGGSLRLSCAASGSTFGYNAMGWYRQAPGKERELVAAISRSGGRTYYADSVKGRFTISRDNAKNTVYLQMNSLKPEDTAVYYCATYYTNKVPARYYWGQGTQVTVSS | high polyreactivity |
| QVQLVESAGGLVQAGGSLRLSCAASGSIFTTYTIVWYRQAPGKERELVAAITSSSGSTYYADSVKGRFTISRDNAKNTVYLQMNSLKPEDTAVYYCNATYSAAVDYWGQGTQVTVSS | low polyreactivity |
| QVQLVESGGGLVQAGGSLRLSCASSGRTFQYYAMGWYRQAPGKERELVAAISSRGGSTYYADSVKGRFTISRDNAKNTVYLQMNSLKPEDTAVYYCAAYVLPRQRVRSDYWGQGTQVTVSS | high polyreactivity |
| QVHLVESGGGLVQAGGSLRLSCAASGSIFGSNAMGWYRQAPGKERELVAAISRRGGNTYYADSVKGRFTISRDNAKNTVYLQLNSLKPEDTAVYYCAAPKDPDRVQYDYWGQGTQVTVSS | low polyreactivity |
| QVQLVESGGGLVQAGGSLRLSCAASGLTFLYYAMGWYRQAPGKERELVAAISSRGGSTYYADSVKGRFKISRDNAKNTVYLQMNSLKPEDTAVYYCNAVRGDEYWGQGTQVTVSS | high polyreactivity |
| QVQLEESGGGLVQAGGSLRLSCAASGSIFGAYALGWYRQAPGKERELVAAISSSVDRTYYADSVKGRFTISRDNAKNTVYLQMNSLKPEDTAVYYCAARWGTRDRTKYYYWGQGTQVTVSS | high polyreactivity |
| QVQLVESGGGLVQAGGSLRLSCAASGSTFKYYAMVWYRQAPGKERELVAAISRSGGRTYYADSVKGRFTISRDNAKNTVYLQMNSLKPEDTAVSLCNAVVARVNVRGTPAFDYWGQGTQVTVSS | high polyreactivity |
| QVQLVESGGGLVQAGGSLRLSCAASGRILYVYVMGWYRQAPGKERELVAAITTSGDSTYYADSVKGRFTISRDNAKNTVYLQMNRLKPEDTAVYYCNAEEHDYVAHMDYWGQGTQVTVSS | low polyreactivity |
| QVQLVESGGGLVQAGGSLRLTCAASGSIFFPNTMGWSRQAPGKERELVASISYSGGSTYYADSVKGRFTISRDIAKNSVYLQMNSLKPEDTAVYYCARTYWGDRYQFSSNGYEYWGQGTQVTVSS | high polyreactivity |
| QVQLVESGGGLVQAGGSLRLSCAASGRIFGVYAMGWSRQAPGKERELGAGITDRGGRTYYADSVKGRFTISRDNAKNTVYLQMNSLKPEDTAVYYCNAGSLHRRYYYEGDYWGQGTQVTVSS | high polyreactivity |
| QVQLVESGGGLVQAGGSLRISCDASGRTFYYYAMGWYRQAPGKERELVASITITDSTNYADSVKGRFTISRDNAKNTVYLQMNSLKPEDTAVYYCAKRGWGTSFYLSDYWGQGTEVTVSS | low polyreactivity |
| QVQLVESGGGLVQAGGSLRLSCAASGNIFGHYTRGWYRQAPAKERELVAAISRTGGRTYYADSVKGRFTISRDNAKNTVYLQMNSLKPEDTAVYDCDADKGGTYFNGDSWGQGTQVTVSS | high polyreactivity |
| QVHLLASGGGLVQAGGSLGLSCAASGRPFNGYALGWYRPAPGSERELVASITLRGGSTYYADSVKGRFTISRDNAKYTVYLQMNCLKPEDTAVYYCNARPNTRRYTFPYGNCGQGTQVTVSS | high polyreactivity |
| QVHLVESGGGIVQAGGSLRLSCAASGSIFKYYPMGWYRQAAGKERELVAVISSGGRTYYADSVKGRFTISRDNAKNTVYLQMNSLKPEDTAVYYCAVYRTFRYRYDSWGQGTQVTVSS | high polyreactivity |
| QVQHVESGGGLVQAGGSLRLSCAASGSIFWDNAMGWYRQAPGKERELVAAITSSGDTTYYADSVKGRFTISRDNAKNTVYLQMNSLKPEDTAVYYCAKVFGPTDYLTGTFKGDYWGQGTQVTVSS | low polyreactivity |
| QVQLVESGGGLVQAGGSLRLSCAASGNIFHDNAMGWYREAPGKERELVAAISDSGGSTYYADSVKGRFTISRDNAKNTVYFQMNSLQPEDTAVYYCDSGRTYYAPYQWWYDYWGQGTQVTVSS | high polyreactivity |

| Sequence | polyreactivity (PSR sort gate) |
| --- | --- |
| QVQLVESGGGLVQAGGSLRLSCAASGRIVFYAMGWYRQAPGKERELVAAITGSGGRTYYADSVKGRFTISRDNAKITVYLQMNSLKPEDTAVYYCAARKWRHGYQGDYWGQGTQVTVSS | high polyreactivity |
| QVQLVESGGGLVQAGGSLRLSCAPSGFTFGYYAMGWYRQAPGKERELVAAITYSGGSTYYADSVKGRFTISRDNAKNTVYLQMNSLKPEDTAVYYCNAYDRRYYYGRWYGEFDYWGLGTQVTVSS | low polyreactivity |
| QVQLVESGGGLVQAGGILRLSCAASGITFRRSAKGWYRQAPGKERELVAGISYSGGTTYYADSVKGRFTISRDNAKNTVYLQMNSLKAEDTAVYYCAAKRISYTREGYSQYDDWGQGSQVTVSS | high polyreactivity |
| QVQLVESGGGLVQAGGSLRLSCAAYGRTLRPYAMGWYRQAPGKERELVASIRRDGSTYADSVKGRYTISLDNAKNTVYLQMNSLKPEDTAVYYCAAARGYPLSYWGQGTQVTVSS | low polyreactivity |
| QVQLVESGGGLVQAGGSLRLSCAASGITFSNSAMGWYRQAPGKERELVASITRRGTRTYYADSVKGRFTISRDNAKNTVYLQMNSLKPEDTAVYYCNRSFYSWIDLIYGGYDYWGQGTQVTVSS | high polyreactivity |
| QVQLVESGGGLVQAGGSLRLSCAASGRIFYRYAMGWYRQAPGKERELVAGISNSGGSTYYADSVKGRFTISRDNAKNSVYLQRNSLKPEDTAVYYCARLSTKPLPYDYWGQGTQVTVSS | high polyreactivity |
| QVQLVESGAGLVQAGGSLRLRCAASGSIFPGSALGWYRQARGKERELVAAITFGGAITYYADSVKGRFTISRDNAKNTVYLLMNSLKPEDSAVYYCAAKSPRILLDYWGQGTQVTVSS | low polyreactivity |
| QVQLVESRGGLVQAGGSLRLSCAASGITLYGYAMGWYRQAPGKERELVAAISRSGSSTYYADSVKGRFTISRDNAKNTVYVQMNSLKPEDTAVYYCNSEKYYLAYLLPFNYWGQGTQVTVSS | high polyreactivity |
| QVQLVESGGGLVQAGGSLRLSCDASGFNFASNDMGWYRPAPGKERELVAAITKGGGRTYYADSVKGRFTISRDNAKNTVYLQMNSLKPEDTAVYYCAARQLIKYDYWGQGTQVTVSS | low polyreactivity |
| QVQLVESGRGLVQAGGSLSLSCAASGITFRPYPMGWYRKAPGKERELVAAISRGGSSTYYADSVKGRFTISRDYAKNTVYLQMISLKPEDTAVYYFAARNNKKYDYWGQGTQVTVSS | high polyreactivity |
| QVQLVESGGGLVQAGGSLRLSCAASGRIFTSNAMGWYRQAPGKERELVAAISSSSGSTYYADSVKGRFTISRDNAKNTVSLQMNSLKPEDTAVYYCAARTWRVSGTYKYDYWGQGTQVTVSS | low polyreactivity |
| QVQLVESRGGLLQAGGTLRLSCAASGLTITTYTMGWSIQAPGTERELVASINYRGGRTYYADSVKGRFSISRDNAKNTVYLQMNSLKPEDTAVYYCAKSRYYRRRQYYHYDYCGQGTQVTVSS | high polyreactivity |
| QVQLVESGGGLVQAGGSLRLSCAASGSIFWRNAMGWYRQAPGKERELVAVISSGGRTYYADSVKGRFTISRDNAKNTVYLQMNSLKPEDTAVYYCAAQYHGGISQRLYYWGQGTQVTVSS | high polyreactivity |
| QVQLVESGGGLVQAGGSLRLSCAASGRTFGHNAMGWYRQAPGKERELVAAISASGSNTYYADSVKGRFTISRDNAKNTVYLQMNSLKPEDTAVYYCAKQVYRTGQQSRYDYWGQGTQVTVSS | low polyreactivity |
| QVQLVESGGGLVQAGGSLRLSCAASGSTFRANAMGWYRQAPGKERELVAAIRWRGVGTYYADSVKGRFTISRDNAKNTVYLQMNSLKPEDTAVYYCAARRLGRSGNGSWGQGTQVTVSS | high polyreactivity |
| QVQLVESGGGLVQAGGSLRLSCAASGFTFYYYTMGWYRQAPGKEREFVAAITSSGGRTNYADSVKGRFTISRDNAKNIVYLQMNRLKPEDTAVYYCAATYIRYDHYRPRGGYWGQGTQVTVSS | high polyreactivity |
| QVQLVESGRGLVQAGGSLRLSCAASGSTFPGNAMGWYRQAPGKERELVAAIRDRGTSTYYADSVKGRFTISRDNAKNTVYLQMNSLKPEDTAVYYCAAASSVAKGRWRLYDYWGQGTQVTVSS | high polyreactivity |
| QVQLVESGGCLVQAGGTLRLSCAASGSIFWAYAMGWYRQAPGKERELVAAISRGGTTTYADSVKGRFTISRDNAKNTVYLQMNSLKPEDTAVYYCARRAVYSKRRYDYWGQGTQVTVSS | low polyreactivity |
| QVQLVESGGGLVLAGGSLRLSCADSGLILRLNAMGWYRQAPGKDRELVATINRGGSTNYADSVKGRFTISRDNAKNTVFLQMNSLNPEDTAVDYCNKARTSQYHHTYWRTYGYWGQGTQVTVSS | low polyreactivity |
| QVQLVESGGGLVQAGGSLRLSCAASGGILWFYAMGWYIQAPGKEREFVAAIDLGGGSTYYADSVKGRFTISRDNAKTTVYLQMNSLKPEDTAVYYCNAETSGHYSTIMDYWGQGTQVTVSS | low polyreactivity |
| QVQLVESAGGLVQAGVSLRLSCAASGFTFSPNAMGWYRQPPGKERELVAAIDWSGDRTYYADSVKGRFTISRDNAKNTVYLQMNSLKPEDTAVYYCAKTNFSQSSRYNYDYWGQGTQVTVSS | low polyreactivity |
